Results reported in patent publication US20260116991A1 (HAINAN SIMCERE ZAIMING PHARMACEUTICAL, published 2026).

B1: hAb003LH3L1a (antibody, human IgG1, V domains shown)
VH: EVQLVQSGAEVKKPGSSVKVSCKASGYRFTDYEMHWVRQAPGQGLEWMGTIDPETGNTAYTQKFMDRVTLTADKSTSTAYMELSSLRSEDTAVYYCTRGYSFTYWGQGTLVTVSS
VL: DIVMTQTPLSLPVTPGEPASISCRSSQNIVHSDGNTYLQWYLQKPGQSPQLLIFKVSNRFSGVPDRFSGSGSGTDFTLKISRVEAEDVGVYYCFQGSHVPFTFGQGTKLEIK
notes: Humanized F2.154.1; VH H3 + VL L1a; expressed as human IgG1
B2: hAb003LH3L1b (antibody, human IgG1, V domains shown)
VH: EVQLVQSGAEVKKPGSSVKVSCKASGYRFTDYEMHWVRQAPGQGLEWMGTIDPETGNTAYTQKFMDRVTLTADKSTSTAYMELSSLRSEDTAVYYCTRGYSFTYWGQGTLVTVSS
VL: DIVMTQTPLSLPVTPGEPASISCRSSQNIVHSNRNTYLQWYLQKPGQSPQLLIFKVSNRFSGVPDRFSGSGSGTDFTLKISRVEAEDVGVYYCFQGSHVPFTFGQGTKLEIK
notes: Humanized F2.154.1; VH H3 + VL L1b; expressed as human IgG1
B3: hAb005LH2L1 (antibody, human IgG1, V domains shown)
VH: EVQLVQSGAEVKKPGASVKVSCKASGYTFTDYEMHWVRQAPGQGLEWMGAIDPETGNTAYIQKFKGRVTLTTDKSTSTAYMELRSLRSDDTAVYYCTRFYSYSHWGQGTTVTVSS
VL: DIVMTQTPLSLPVTPGEPASISCRSSQSLVHSNGNTYLHWYLQKPGQSPQLLIYKVSNRFSGVPDRFSGSGSGTDFTLKISRVEAEDVGVYYCSQNTHVPPTFGGGTKVEIK
notes: Humanized F3.54.12; VH H2 + VL L1; expressed as human IgG1
B4: hAb005LH2L1a (antibody, human IgG1, V domains shown)
VH: EVQLVQSGAEVKKPGASVKVSCKASGYTFTDYEMHWVRQAPGQGLEWMGAIDPETGNTAYIQKFKGRVTLTTDKSTSTAYMELRSLRSDDTAVYYCTRFYSYSHWGQGTTVTVSS
VL: DIVMTQTPLSLPVTPGEPASISCRSSQSLVHSDGNTYLHWYLQKPGQSPQLLIYKVSNRFSGVPDRFSGSGSGTDFTLKISRVEAEDVGVYYCSQNTHVPPTFGGGTKVEIK
notes: Humanized F3.54.12; VH H2 + VL L1a; expressed as human IgG1
B5: hAb005LH1L1a (antibody, human IgG1, V domains shown)
VH: EVQLVQSGAEVKKPGASVKVSCKASGYTFTDYEMHWVRQAPGQGLEWMGAIDPETGNTAYIQKFKGRVTMTTDKSTSTAYMELRSLRSDDTAVYYCTRFYSYSHWGQGTTVTVSS
VL: DIVMTQTPLSLPVTPGEPASISCRSSQSLVHSDGNTYLHWYLQKPGQSPQLLIYKVSNRFSGVPDRFSGSGSGTDFTLKISRVEAEDVGVYYCSQNTHVPPTFGGGTKVEIK
notes: Humanized F3.54.12; VH H1 + VL L1a; expressed as human IgG1
B6: hAb005LH1L1 (antibody, human IgG1, V domains shown)
VH: EVQLVQSGAEVKKPGASVKVSCKASGYTFTDYEMHWVRQAPGQGLEWMGAIDPETGNTAYIQKFKGRVTMTTDKSTSTAYMELRSLRSDDTAVYYCTRFYSYSHWGQGTTVTVSS
VL: DIVMTQTPLSLPVTPGEPASISCRSSQSLVHSNGNTYLHWYLQKPGQSPQLLIYKVSNRFSGVPDRFSGSGSGTDFTLKISRVEAEDVGVYYCSQNTHVPPTFGGGTKVEIK
notes: Humanized F3.54.12; VH H1 + VL L1; expressed as human IgG1
B7: hAb005LH3L1 (antibody, human IgG1, V domains shown)
VH: EVQLVQSGAEVKKPGASVKVSCKASGYTFTDYEMHWVRQAPGQGLEWIGAIDPETGNTAYIQKFKGRATLTTDKSTSTAYMELRSLRSDDTAVYYCTRFYSYSHWGQGTTVTVSS
VL: DIVMTQTPLSLPVTPGEPASISCRSSQSLVHSNGNTYLHWYLQKPGQSPQLLIYKVSNRFSGVPDRFSGSGSGTDFTLKISRVEAEDVGVYYCSQNTHVPPTFGGGTKVEIK
notes: Humanized F3.54.12; VH H3 + VL L1; expressed as human IgG1
B8: hAb005LH3L1a (antibody, human IgG1, V domains shown)
VH: EVQLVQSGAEVKKPGASVKVSCKASGYTFTDYEMHWVRQAPGQGLEWIGAIDPETGNTAYIQKFKGRATLTTDKSTSTAYMELRSLRSDDTAVYYCTRFYSYSHWGQGTTVTVSS
VL: DIVMTQTPLSLPVTPGEPASISCRSSQSLVHSDGNTYLHWYLQKPGQSPQLLIYKVSNRFSGVPDRFSGSGSGTDFTLKISRVEAEDVGVYYCSQNTHVPPTFGGGTKVEIK
notes: Humanized F3.54.12; VH H3 + VL L1a; expressed as human IgG1
B9: hAb005LH1L1b (antibody, human IgG1, V domains shown)
VH: EVQLVQSGAEVKKPGASVKVSCKASGYTFTDYEMHWVRQAPGQGLEWMGAIDPETGNTAYIQKFKGRVTMTTDKSTSTAYMELRSLRSDDTAVYYCTRFYSYSHWGQGTTVTVSS
VL: DIVMTQTPLSLPVTPGEPASISCRSSQSLVHSNRNTYLHWYLQKPGQSPQLLIYKVSNRFSGVPDRFSGSGSGTDFTLKISRVEAEDVGVYYCSQNTHVPPTFGGGTKVEIK
notes: Humanized F3.54.12; VH H1 + VL L1b; expressed as human IgG1
B10: hAb005LH2L1b (antibody, human IgG1, V domains shown)
VH: EVQLVQSGAEVKKPGASVKVSCKASGYTFTDYEMHWVRQAPGQGLEWMGAIDPETGNTAYIQKFKGRVTLTTDKSTSTAYMELRSLRSDDTAVYYCTRFYSYSHWGQGTTVTVSS
VL: DIVMTQTPLSLPVTPGEPASISCRSSQSLVHSNRNTYLHWYLQKPGQSPQLLIYKVSNRFSGVPDRFSGSGSGTDFTLKISRVEAEDVGVYYCSQNTHVPPTFGGGTKVEIK
notes: Humanized F3.54.12; VH H2 + VL L1b; expressed as human IgG1
B11: hAb005LH3L1b (antibody, human IgG1, V domains shown)
VH: EVQLVQSGAEVKKPGASVKVSCKASGYTFTDYEMHWVRQAPGQGLEWIGAIDPETGNTAYIQKFKGRATLTTDKSTSTAYMELRSLRSDDTAVYYCTRFYSYSHWGQGTTVTVSS
VL: DIVMTQTPLSLPVTPGEPASISCRSSQSLVHSNRNTYLHWYLQKPGQSPQLLIYKVSNRFSGVPDRFSGSGSGTDFTLKISRVEAEDVGVYYCSQNTHVPPTFGGGTKVEIK
notes: Humanized F3.54.12; VH H3 + VL L1b; expressed as human IgG1

What was measured:
[1] = target: T1, human GPC3 on CHO-K1-human GPC3 cells (CHOK1-hGPC3.2B5) (human, UniProt P51654 25-554); test: FACS, CHOK1-hGPC3.2B5 cells;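 note: flow cytometry of humanized antibodies binding to the cells over one hour in the cold, read as cell mean fluorescence intensity, with EC50 obtained by curve fitting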
T1 construct: whole, on cells
Method: The desired cells were expanded to a logarithmic growth phase in a T-75 cell culture flask, the medium was removed by pipetting, and the cells were washed twice with a PBS buffer, and digested with trypsin. Then a complete medium was added to stop the digestion, and the cells were blown into a single cell suspension. After counting, the cells were centrifuged, and the cell pellet was resuspended with an FACS buffer (PBS+2% fetal bovine serum) to 2×10⁶ cells/mL. The cell resuspension solution was added to a 96-well FACS reaction plate at 50 μl/well, and a humanized antibody sample to be tested was added at 50 μl/well for incubation at 4° C. for 1 h. […] After the plate was centrifuged and washed 3 times with a PBS buffer, 100 μl of the resulting solution was assayed and analyzed by FACS (FACS Canto™, purchased from BD Biosciences). Data analysis was performed by software (FlowJo) to obtain the mean fluorescence intensity (MFI) of the cells. Then, analysis was performed by software (GraphPad Prism8), data were fitted, and EC₅₀ values were calculated.

[2] = target: biotinylated labeled human GPC3 protein (produced in-house) (human, UniProt P51654 25-559, limits assumed, biotinylated (Dojindo, Cat. No. LK03); sites not stated); test: ELISA, biotinylated human GPC3 protein

| Binder | EC50 [1] | Max MFI [1] | OD450 at 0.0008 nM [2] | OD450 at 0.004 nM [2] | OD450 at 0.02 nM [2] | OD450 at 0.11 nM [2] | OD450 at 0.53 nM [2] | OD450 at 2.67 nM [2] | OD450 at 13.33 nM [2] | OD450 at 66.66 nM [2] |
| --- | --- | --- | --- | --- | --- | --- | --- | --- | --- | --- |
| B1 | 6.02 nM | 2240 MFI | 0.086 OD450 | 0.128 OD450 | 0.423 OD450 | 1.3 OD450 | 2.04 OD450 | 2.13 OD450 | 2.15 OD450 | 2.48 OD450 |
| B2 | 0.647 nM | 4980 MFI | 0.157 OD450 | 0.381 OD450 | 1.08 OD450 | 2 OD450 | 2.54 OD450 | 2.44 OD450 | 2.59 OD450 | 2.61 OD450 |
| B3 | 0.736 nM | 4540 MFI | 0.083 OD450 | 0.185 OD450 | 0.464 OD450 | 0.812 OD450 | 1.01 OD450 | 1.12 OD450 | 1.12 OD450 | 1.16 OD450 |
| B4 | 118 nM | 153 MFI | 0.049 OD450 | 0.049 OD450 | 0.053 OD450 | 0.048 OD450 | 0.066 OD450 | 0.148 OD450 | 0.249 OD450 | 0.589 OD450 |
| B5 | 315 nM | 122 MFI | 0.053 OD450 | 0.05 OD450 | 0.051 OD450 | 0.057 OD450 | 0.056 OD450 | 0.113 OD450 | 0.208 OD450 | 0.558 OD450 |
| B6 | 0.563 nM | 4500 MFI | 0.078 OD450 | 0.202 OD450 | 0.442 OD450 | 0.84 OD450 | 1.1 OD450 | 1.17 OD450 | 1.1 OD450 | 1.17 OD450 |
| B7 | 0.734 nM | 4700 MFI | 0.079 OD450 | 0.162 OD450 | 0.441 OD450 | 0.715 OD450 | 0.923 OD450 | 1.1 OD450 | 1.07 OD450 | 1.12 OD450 |
| B8 | 133 nM | 136 MFI | 0.047 OD450 | 0.049 OD450 | 0.049 OD450 | 0.05 OD450 | 0.058 OD450 | 0.101 OD450 | 0.153 OD450 | 0.402 OD450 |
| B9 | 0.491 nM | 4610 MFI | 0.075 OD450 | 0.172 OD450 | 0.45 OD450 | 0.812 OD450 | 1.04 OD450 | 1.16 OD450 | 1.04 OD450 | 1.13 OD450 |
| B10 | 0.54 nM | 4770 MFI | 0.074 OD450 | 0.194 OD450 | 0.43 OD450 | 0.856 OD450 | 1.05 OD450 | 1.04 OD450 | 1.07 OD450 | 1.16 OD450 |
| B11 | 0.558 nM | 4740 MFI | 0.074 OD450 | 0.169 OD450 | 0.426 OD450 | 0.838 OD450 | 0.952 OD450 | 1.1 OD450 | 1.03 OD450 | 1.04 OD450 |
